Assay results from patent US20230201364A1.
Values belong to the binder of their own block, whether it stands above or below them.

Tests used:
[1] = target: Fc gamma receptor IIb (FcgRIIb, CD32b) (human) (UniProt P31994); test: AlphaLISA competition or analogous assay for FcγRIIb (not described)
[2] = target: recombinant biotinylated human neonatal Fc receptor (FcRn) (human) (UniProt P55899); test: AlphaLISA competition at pH 6; test molecule titrated against human IgG acceptor beads for biotinylated human FcRn
[3] = target: recombinant biotinylated human Fc gamma receptor IIa (FcγRIIa/CD32a 167H) (human) (UniProt P12318); test: AlphaLISA competition; test molecule titrated against human IgG Fc acceptor beads for biotinylated FcγRIIa
recombinant biotinylated human Fc gamma receptor IIa (FcγRIIa/CD32a 167H) (human), sequence (P12318 36-218 limits assumed): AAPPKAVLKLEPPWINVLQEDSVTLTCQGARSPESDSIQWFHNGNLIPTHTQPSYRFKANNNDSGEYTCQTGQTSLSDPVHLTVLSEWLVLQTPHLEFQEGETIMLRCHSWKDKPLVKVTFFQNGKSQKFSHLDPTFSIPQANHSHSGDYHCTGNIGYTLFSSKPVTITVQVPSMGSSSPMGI

[4] = target: recombinant biotinylated human Fc gamma receptor IIIa (FcγRIIIa/CD16) (human) (UniProt P08637); test: AlphaLISA competition; test molecule titrated against human IgG Fc acceptor beads for biotinylated FcγRIIIa
recombinant biotinylated human Fc gamma receptor IIIa (FcγRIIIa/CD16) (human), sequence (P08637 17-208 limits assumed): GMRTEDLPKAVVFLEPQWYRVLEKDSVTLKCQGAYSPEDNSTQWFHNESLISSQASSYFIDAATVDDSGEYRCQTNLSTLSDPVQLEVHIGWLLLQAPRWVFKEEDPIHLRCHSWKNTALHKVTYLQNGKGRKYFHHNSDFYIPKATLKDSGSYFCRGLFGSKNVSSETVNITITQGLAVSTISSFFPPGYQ

[5] = target: recombinant biotinylated human Fc gamma receptor I (FcγRI/CD64) (human) (UniProt P12314); test: AlphaLISA competition; test molecule titrated against human IgG Fc acceptor beads for biotinylated FcγRI
recombinant biotinylated human Fc gamma receptor I (FcγRI/CD64) (human), sequence (P12314 16-288 limits assumed): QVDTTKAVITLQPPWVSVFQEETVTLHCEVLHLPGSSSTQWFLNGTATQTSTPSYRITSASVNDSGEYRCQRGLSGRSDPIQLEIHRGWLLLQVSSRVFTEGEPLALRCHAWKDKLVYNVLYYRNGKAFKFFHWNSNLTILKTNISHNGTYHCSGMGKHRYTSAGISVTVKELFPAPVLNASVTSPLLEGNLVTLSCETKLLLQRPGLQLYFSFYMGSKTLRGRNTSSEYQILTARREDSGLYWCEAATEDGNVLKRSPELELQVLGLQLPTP

Fc gamma receptor IIb (FcgRIIb, CD32b) (human), sequence (P31994 46-217 limits assumed): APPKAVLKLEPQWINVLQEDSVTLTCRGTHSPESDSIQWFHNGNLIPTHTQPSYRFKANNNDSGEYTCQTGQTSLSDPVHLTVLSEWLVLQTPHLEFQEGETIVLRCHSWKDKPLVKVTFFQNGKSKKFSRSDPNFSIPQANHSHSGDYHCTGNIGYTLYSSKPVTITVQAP

Kd [1]: 4710 nM
Kd [2]: 25.3 nM
Kd [3]: 1140 nM
Kd [4]: 481 nM
Kd [5]: 3.81 nM
B1: CMP-016 (LZM-009 conjugated to CMP-003, DAR 1, K248) (antibody)
VH: QVQLVQSGAEVKKPGASVKVSCKASGYTFTSYYMYWVRQAPGQGLEWMGGVNPSNGGTNFNEKFKSRVTITADKSTSTAYMELSSLRSEDTAVYYCARRDYRYDMGFDYWGQGTTVTVSS
VL: EIVLTQSPATLSLSPGERATISCRASKGVSTSGYSYLHWYQQKPGQAPRLLIYLASYLESGVPARFSGSGSGTDFTLTISSLEPEDFATYYCQHSRELPLTFGTGTKVEIK
chain: APTSSSTKKTQLQLEHLLLDLQXILNGINNYKNPKLTRXLXYKFYXPKKATELKHLQCLEEELKPLEEVLXLAQSKNFHLRPRDLISNINVIVLELKGSETTFXCEYADETATIVEFLNRWITFSQSIISTLT
modifications: not fully specified; Nle at 23, 39, 46 and Hse at 41, 71, 104 (as in SEQ ID NO: 3); ~0.5 kDa PEG on Y45; 0.5 kDa PEG on F42Y whose azide end is joined to the DBCO linker of the antibody; the heavy chain carries a chemical linker to CMP-003 on Lys K248 (Eu numbering) of the Fc; DAR 1

Kd [1]: 6680 nM
Kd [2]: 10.7 nM
Kd [3]: 1180 nM
Kd [4]: 272 nM
Kd [5]: 2.3 nM
B2: CMP-102 (LZM-009 conjugated to CMP-003, DAR 1, K288) (antibody)
VH: B1 VH
VL: B1 VL
chain: B1 chain
modifications: not fully specified; Nle at 23, 39, 46 and Hse at 41, 71, 104 (as in SEQ ID NO: 3); ~0.5 kDa PEG on Y45; 0.5 kDa PEG on F42Y whose azide end is joined to the DBCO linker of the antibody; the heavy chain carries a chemical linker to CMP-003 on Lys K288 (Eu numbering) of the Fc; DAR 1

Kd [1]: 3340 nM
Kd [2]: 27.1 nM
Kd [3]: 1870 nM
Kd [4]: 5410 nM
Kd [5]: 12 nM
B3: CMP-028 (LZM-009 conjugated to CMP-003, DAR 1.9, K288) (antibody)
VH: B1 VH
VL: B1 VL
chain: B1 chain
modifications: not fully specified; Nle at 23, 39, 46 and Hse at 41, 71, 104 (as in SEQ ID NO: 3); ~0.5 kDa PEG on Y45; 0.5 kDa PEG on F42Y whose azide end is joined to the DBCO linker of the antibody; the heavy chain carries a chemical linker to CMP-003 on Lys K288 (Eu numbering) of the Fc; DAR 1.9
